Measured values published in US20240116985A1 (published 2024).
Starred links: 1 amine or outer side, 2 acyl side, 3 side chain; linkers in the order of their positions; H or OH if unused. Positions of bridges follow the written chain, without caps; N, C: chain ends. Non-standard residues stand in square brackets, D forms with d. Primed or numbered codes have the meaning given here. B5(15) = 2-amino-2-(pent-4-en-1-yl)hept-6-enoic acid (2,2-bis(4-pentenyl)glycine), stitching residue bearing two staples, C=CCCCC(CCCC=C)(N[*:1])C(=O)[*:2]; B5(23) = 2-amino-2-(pent-4-en-1-yl)hept-6-enoic acid (2,2-bis(4-pentenyl)glycine), stitching residue, C=CCCCC(CCCC=C)(N[*:1])C(=O)[*:2]; Bta = N[C@@H](Cc1csc2ccccc12)C(=O)O; αAllylPro = C=CC[C@@]1(C(=O)O)CCCN1; S8 = C=CCCCCCC[C@](C)(N)C(=O)O; hSer = N[C@@H](CCO)C(=O)O

Columns and labels:
[1] = target: T1, B-cat-Halo (beta-catenin HaloTag NanoBRET construct expressed in HEK293 cells) (UniProt P35222 1-781); experiment: cell-based or functional assay
T1 sequence (looked up): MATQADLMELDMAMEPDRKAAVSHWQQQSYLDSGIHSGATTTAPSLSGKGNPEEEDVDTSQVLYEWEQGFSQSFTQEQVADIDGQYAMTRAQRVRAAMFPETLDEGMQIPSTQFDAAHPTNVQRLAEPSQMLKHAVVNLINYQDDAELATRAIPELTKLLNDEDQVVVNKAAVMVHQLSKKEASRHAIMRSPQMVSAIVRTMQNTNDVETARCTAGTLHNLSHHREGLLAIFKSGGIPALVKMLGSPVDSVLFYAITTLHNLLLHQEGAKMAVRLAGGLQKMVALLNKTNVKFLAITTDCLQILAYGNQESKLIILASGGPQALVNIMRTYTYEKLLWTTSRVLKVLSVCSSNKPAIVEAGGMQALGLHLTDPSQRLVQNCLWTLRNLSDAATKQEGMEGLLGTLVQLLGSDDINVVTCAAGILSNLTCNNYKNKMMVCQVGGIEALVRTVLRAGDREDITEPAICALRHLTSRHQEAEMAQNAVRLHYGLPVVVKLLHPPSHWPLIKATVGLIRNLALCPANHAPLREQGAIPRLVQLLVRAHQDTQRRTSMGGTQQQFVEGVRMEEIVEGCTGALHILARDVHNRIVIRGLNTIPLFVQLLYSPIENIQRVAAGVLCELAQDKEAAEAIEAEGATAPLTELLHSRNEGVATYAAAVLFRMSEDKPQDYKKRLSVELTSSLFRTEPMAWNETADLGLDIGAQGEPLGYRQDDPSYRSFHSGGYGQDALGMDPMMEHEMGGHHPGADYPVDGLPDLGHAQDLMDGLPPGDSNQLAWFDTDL

[2] = target: T2, full-length beta-Catenin (Uniprot ID P35222) (Homo sapiens (Human), UniProt P35222 2-781); experiment: fluorescence polarization competition; displaces 5FAM-TCF4(10-53) from full-length beta-catenin
T2 construct: full-length; also called bCat; B-Catenin
T2 sequence: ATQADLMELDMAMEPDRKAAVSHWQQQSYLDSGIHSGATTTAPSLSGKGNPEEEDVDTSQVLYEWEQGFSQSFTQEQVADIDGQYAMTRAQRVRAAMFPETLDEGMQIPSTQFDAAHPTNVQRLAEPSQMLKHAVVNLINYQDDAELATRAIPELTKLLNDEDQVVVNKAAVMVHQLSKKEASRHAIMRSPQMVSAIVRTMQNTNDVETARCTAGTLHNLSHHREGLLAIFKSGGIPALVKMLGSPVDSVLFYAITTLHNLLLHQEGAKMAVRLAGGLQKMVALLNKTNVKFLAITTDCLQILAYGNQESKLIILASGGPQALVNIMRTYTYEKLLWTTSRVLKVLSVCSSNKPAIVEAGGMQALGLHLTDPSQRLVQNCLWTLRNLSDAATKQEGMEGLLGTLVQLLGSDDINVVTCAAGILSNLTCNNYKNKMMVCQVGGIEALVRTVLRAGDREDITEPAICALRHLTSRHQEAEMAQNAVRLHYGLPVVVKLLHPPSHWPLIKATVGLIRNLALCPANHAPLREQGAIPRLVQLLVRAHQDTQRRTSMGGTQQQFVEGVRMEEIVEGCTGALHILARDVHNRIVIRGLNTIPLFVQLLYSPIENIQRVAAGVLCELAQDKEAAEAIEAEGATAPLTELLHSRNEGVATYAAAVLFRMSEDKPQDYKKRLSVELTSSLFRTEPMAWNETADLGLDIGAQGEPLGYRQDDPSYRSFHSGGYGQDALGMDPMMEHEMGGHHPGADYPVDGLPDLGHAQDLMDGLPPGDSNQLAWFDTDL
Protocol: The plate was incubated protected from light for 60 minutes at 20° C. prior to read. Reads were performed on a CLARIOstar plate reader (BMG Labtech) in duplicate, and data were fitted to a 1:1 binding model with hill slope using an in-house script. All provided concentrations are final concentrations.

B1: I-1532 (peptide)
peptide: XDNXDEAAFQXFXQ
modifications: not fully specified; N-terminal Ac; PL3 at 1, B5 at 4, S8 at 11 (staples PL3-B5 and B5-S8 by olefin metathesis); BztA at 13; C-terminal NH2
notes: Stapled peptide composition; Same description as I-1531; separate, later eluting HPLC peak (staple isomer); also called Ac-PL3-Asp-Asn-B5-Asp-Glu-Ala-Ala-Phe-Gln-S8-Phe-BztA-Gln-NH2
With B1 the “NanoBRET Abs IC50” value [1] was > 20000 nM and the IC50 [2] was 49 nM.

B2: I-1533 (peptide)
peptide: Ac-[αAllylPro]DN[B5(15)]DEAAFL[S8]F[Bta]Q-NH2
modifications: staple 1-4, 4-11
notes: Stapled peptide composition; also called Ac-PL3-Asp-Asn-B5-Asp-Glu-Ala-Ala-Phe-Leu-S8-Phe-BztA-Gln-NH2
With B2 the “NanoBRET Abs IC50” value [1] was > 20000 nM and the IC50 [2] was 76 nM.

B3: I-1534 (peptide)
peptide: Ac-[αAllylPro]DN[B5(15)]DEAAF[hSer][S8]F[Bta]Q-NH2
modifications: staple 1-4, 4-11; not fully specified; printed as Ac-PL3-Asp-Asn-B5-Asp-Glu-Ala-Ala-Phe-Hse-S8-Phe-BztA-Gln-NH2
notes: Stapled peptide composition; Same description as I-1535; earlier eluting HPLC peak (staple isomer); also called Ac-PL3-Asp-Asn-B5-Asp-Glu-Ala-Ala-Phe-Hse-S8-Phe-BztA-Gln-NH2
B3 was tested, and the “NanoBRET Abs IC50” value [1] was > 20000 nM and the IC50 [2] was 181 nM.

B4: I-1535 (peptide)
peptide: Ac-[αAllylPro]DN[B5(15)]DEAAF[hSer][S8]F[Bta]Q-NH2
modifications: staple 1-4, 4-11; not fully specified; printed as Ac-PL3-Asp-Asn-B5-Asp-Glu-Ala-Ala-Phe-Hse-S8-Phe-BztA-Gln-NH2
notes: Stapled peptide composition; later eluting HPLC peak (staple isomer); also called Ac-PL3-Asp-Asn-B5-Asp-Glu-Ala-Ala-Phe-Hse-S8-Phe-BztA-Gln-NH2
For B4, the “NanoBRET Abs IC50” value [1] was > 20000 nM and the IC50 [2] was 72 nM.

B5: I-1539 (peptide)
peptide: XDQXDEAAFQXFXQ
modifications: not fully specified; N-terminal Ac; PL3 at 1, B5 at 4, S8 at 11 (staples PL3-B5 and B5-S8 by olefin metathesis); BztA at 13; C-terminal NH2
notes: Stapled peptide composition; earlier eluting HPLC peak (staple isomer); also called Ac-PL3-Asp-Gln-B5-Asp-Glu-Ala-Ala-Phe-Gln-S8-Phe-BztA-Gln-NH2
In the case of B5, the “NanoBRET Abs IC50” value [1] is reported as > 20000 nM and the IC50 [2] is reported as 36 nM.

B6: I-1540 (peptide)
peptide: XDQXDEAAFQXFXQ
modifications: not fully specified; N-terminal Ac; PL3 at 1, B5 at 4, S8 at 11 (staples PL3-B5 and B5-S8 by olefin metathesis); BztA at 13; C-terminal NH2
notes: Stapled peptide composition; Same description as I-1539; later eluting HPLC peak (staple isomer); also called Ac-PL3-Asp-Gln-B5-Asp-Glu-Ala-Ala-Phe-Gln-S8-Phe-BztA-Gln-NH2
For B6, the “NanoBRET Abs IC50” value [1] was 42400 nM and the IC50 [2] was 17 nM.

B7: I-1541 (peptide)
peptide: Ac-[αAllylPro]DQ[B5(15)]DEAAFL[S8]F[Bta]Q-NH2
modifications: staple 1-4, 4-11
notes: Stapled peptide composition; also called Ac-PL3-Asp-Gln-B5-Asp-Glu-Ala-Ala-Phe-Leu-S8-Phe-BztA-Gln-NH2
B7 was tested, and the “NanoBRET Abs IC50” value [1] was 34700 nM and the IC50 [2] was 39 nM.

B8: I-1544 (peptide)
peptide: XDSXDEAAFQXFXQ
modifications: not fully specified; N-terminal Ac; PL3 at 1, B5 at 4, S8 at 11 (staples PL3-B5 and B5-S8 by olefin metathesis); Hse at 3; BztA at 13; C-terminal NH2
notes: Stapled peptide composition; earlier eluting HPLC peak (staple isomer); also called Ac-PL3-Asp-Hse-B5-Asp-Glu-Ala-Ala-Phe-Gln-S8-Phe-BztA-Gln-NH2
With B8 the “NanoBRET Abs IC50” value [1] was > 20000 nM and the IC50 [2] was 61 nM.

B9: I-1545 (peptide)
peptide: XDSXDEAAFQXFXQ
modifications: not fully specified; N-terminal Ac; PL3 at 1, B5 at 4, S8 at 11 (staples PL3-B5 and B5-S8 by olefin metathesis); Hse at 3; BztA at 13; C-terminal NH2
notes: Stapled peptide composition; later eluting HPLC peak (staple isomer); also called Ac-PL3-Asp-Hse-B5-Asp-Glu-Ala-Ala-Phe-Gln-S8-Phe-BztA-Gln-NH2
In the case of B9, the “NanoBRET Abs IC50” value [1] is reported as > 20000 nM and the IC50 [2] is reported as 26 nM.

B10: I-1546 (peptide)
peptide: Ac-[αAllylPro]D[hSer][B5(15)]DEAAFL[S8]F[Bta]Q-NH2
modifications: staple 1-4, 4-11
notes: Stapled peptide composition; also called Ac-PL3-Asp-Hse-B5-Asp-Glu-Ala-Ala-Phe-Leu-S8-Phe-BztA-Gln-NH2
With B10 the “NanoBRET Abs IC50” value [1] was 37900 nM and the IC50 [2] was 71 nM.

B11: I-1547 (peptide)
peptide: Ac-[αAllylPro]D[hSer][B5(15)]DEAAF[hSer][S8]F[Bta]Q-NH2
modifications: staple 1-4, 4-11; not fully specified; printed as Ac-PL3-Asp-Hse-B5-Asp-Glu-Ala-Ala-Phe-Hse-S8-Phe-BztA-Gln-NH2
notes: Stapled peptide composition; Same description as I-1548; earlier eluting HPLC peak (staple isomer); also called Ac-PL3-Asp-Hse-B5-Asp-Glu-Ala-Ala-Phe-Hse-S8-Phe-BztA-Gln-NH2
In the case of B11, the “NanoBRET Abs IC50” value [1] is reported as > 20000 nM and the IC50 [2] is reported as 68 nM.

B12: I-1550 (peptide)
peptide: Ac-[αAllylPro]DF[B5(23)]DEAAFL[S8]F[Bta]Q-NH2
modifications: staple 1-4, 4-11
notes: Stapled peptide composition; also called Ac-PL3-Asp-Phe-B5-Asp-Glu-Ala-Ala-Phe-Leu-S8-Phe-BztA-Gln-NH2
With B12 the “NanoBRET Abs IC50” value [1] was 15300 nM and the IC50 [2] was 22 nM.

B13: I-1551 (peptide)
peptide: Ac-[αAllylPro]DF[B5(23)]DEAAF[hSer][S8]F[Bta]Q-NH2
modifications: staple 1-4, 4-11
notes: Stapled peptide composition; also called Ac-PL3-Asp-Phe-B5-Asp-Glu-Ala-Ala-Phe-Hse-S8-Phe-BztA-Gln-NH2
For B13, the “NanoBRET Abs IC50” value [1] was 19800 nM and the IC50 [2] was 16 nM.

B14: I-1552 (peptide)
peptide: Ac-[αAllylPro]DK[B5(23)]DEAAFQ[S8]F[Bta]Q-NH2
modifications: staple 1-4, 4-11
notes: Stapled peptide composition; also called Ac-PL3-Asp-Lys-B5-Asp-Glu-Ala-Ala-Phe-Gln-S8-Phe-BztA-Gln-NH2
B14 was tested, and the “NanoBRET Abs IC50” value [1] was > 20000 nM and the IC50 [2] was 56 nM.
